Literature values in paper PMC9313270.

Target: leptin (UniProt P41159)
Assay: not stated (listed for the qPCR aptasensor, 'This work')
Conditions: leptin binding buffer (composition not given); aptamer-adaptor annealing 15 min at 37 C, leptin incubation 30 min at 37 C, polymerase extension 10 min at 60 C …

Chain of leptin (P41159 22-167): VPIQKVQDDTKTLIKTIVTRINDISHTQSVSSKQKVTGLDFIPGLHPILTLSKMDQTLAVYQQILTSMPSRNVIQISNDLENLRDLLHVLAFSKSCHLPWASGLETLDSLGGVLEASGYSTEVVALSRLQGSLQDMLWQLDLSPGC

In the case of “GTTAATGGGGGATCTCGCGGCCGTTCTTGTTGCTTATACA [leptin aptamer (Ashley and Li)]”, the Kd is listed as 1.5 µM.
